In patent US20040018971A1:

Molecular target: HLA-A*2401 (human)
Experiment: inhibition of 125I probe peptide binding to purified HLA; IC50 standard/IC50 test

Row | Binder | relative binding ratio
1 | EYLVPQQGF [HER2/neu 1022-1030] | 0.0014
2 | AFSPAFDNL [HER2/neu 1212-1220] | 0.0011
3 | CYQDTILW [HER2/neu 162-169] | 0.012
4 | AYSLTLQGLGI [HER2/neu 440-450] | 0.023
5 | AYSLTLQGL [HER2/neu 440-448] | 0.13
6 | EYLVPQQGFF [HER2/neu 1022-1031] | 0.012
7 | DFGLARLLDI [HER2/neu 863-872] | 0.0002
8 | GMGAAKGLQSL [HER2/neu 1091-1101] | -0.0003
9 | EYVNARHCL [HER2/neu 553-561] | 0.0061
10 | EFAGCKKIF [HER2/neu 363-371] | 0.0003
11 | DFGLARLL [HER2/neu 863-870] | 0.0005
12 | CFVHTVPW [HER2/neu 475-482] | 0.019
13 | EFAGCKKI [HER2/neu 363-370] | -0.0003
14 | HFNHSGICEL [HER2/neu 257-266] | 0.0002
15 | IMVKCWMI [HER2/neu 954-961] | 0.021
16 | CYQDTILWKDI [HER2/neu 162-172] | 0.0016
17 | AFGTVYKGIWI [HER2/neu 730-740] | 0.0008
18 | AFGTVYKGIW [HER2/neu 730-739] | 0.001
19 | CFVHTVPWDQL [HER2/neu 475-485] | 0.0003
20 | AFDNLYYW [HER2/neu 1216-1223] | 0.0039
21 | IFHKNNQL [HER2/neu 172-179] | -0.0003
22 | EYHADGGKVPI [HER2/neu 876-886] | -0.0003
23 | IWIPDGENVKI [HER2/neu 738-748] | 0.0027
24 | IFGSLAFL [HER2/neu 370-377] | 0.012
25 | GMGAAKGL [HER2/neu 1091-1098] | -0.0003
26 | AWPDSLPDL [HER2/neu 414-422] | 0.0041
27 | GYLYISAW [HER2/neu 408-415] | 0.0044
28 | AFGTVYKGI [HER2/neu 730-738] | 0.0002
29 | CYGLGMEHL [HER2/neu 342-350] | 0.018
30 | CMQIAKGMSYL [HER2/neu 826-836] | -0.0003
